Measured values reported in IntAct's records for PubMed 22124327.

Molecular target: otub1_human OTUB1 (UniProt Q96FW1)
Sequence (Q96FW1 whole entry): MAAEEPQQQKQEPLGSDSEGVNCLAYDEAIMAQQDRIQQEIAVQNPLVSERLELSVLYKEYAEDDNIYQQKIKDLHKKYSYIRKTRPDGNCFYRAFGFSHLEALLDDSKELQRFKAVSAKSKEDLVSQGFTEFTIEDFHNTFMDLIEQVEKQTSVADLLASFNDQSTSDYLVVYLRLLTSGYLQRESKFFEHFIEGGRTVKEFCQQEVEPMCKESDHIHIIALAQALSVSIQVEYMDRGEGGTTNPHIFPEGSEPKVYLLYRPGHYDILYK

Chain of Ubiquitin-conjugating enzyme E2 D1 (Homo sapiens), P51668 D87A (P51668 whole entry D87A): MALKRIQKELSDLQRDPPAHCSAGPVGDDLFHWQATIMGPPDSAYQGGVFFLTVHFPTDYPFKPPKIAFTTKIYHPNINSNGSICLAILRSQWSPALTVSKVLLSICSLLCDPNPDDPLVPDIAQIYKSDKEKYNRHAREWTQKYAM

Ubiquitin-conjugating enzyme E2 D1 (Homo sapiens), P51668 D87A
effect of a mutation on the interaction: disrupting interaction
